In US7067277 (H LUNDBECK A S, dated 2006):
Substitutions are numbered along the chain they refer to.

T1: human Y1 receptor (human, UniProt P25929 1-384)
T1 sequence (looked up): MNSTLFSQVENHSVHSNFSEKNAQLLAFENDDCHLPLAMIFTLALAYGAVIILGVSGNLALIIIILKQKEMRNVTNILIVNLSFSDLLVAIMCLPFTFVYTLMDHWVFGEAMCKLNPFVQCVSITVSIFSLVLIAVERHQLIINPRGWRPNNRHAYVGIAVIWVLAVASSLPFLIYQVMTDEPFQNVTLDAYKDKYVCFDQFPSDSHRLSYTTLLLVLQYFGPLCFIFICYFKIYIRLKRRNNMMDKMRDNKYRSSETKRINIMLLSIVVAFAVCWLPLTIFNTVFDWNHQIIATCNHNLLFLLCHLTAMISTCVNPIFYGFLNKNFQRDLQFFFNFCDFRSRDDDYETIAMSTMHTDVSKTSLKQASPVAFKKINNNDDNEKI

T2: human 5HT1F receptor (human, UniProt P30939 1-366)
T2 sequence (looked up): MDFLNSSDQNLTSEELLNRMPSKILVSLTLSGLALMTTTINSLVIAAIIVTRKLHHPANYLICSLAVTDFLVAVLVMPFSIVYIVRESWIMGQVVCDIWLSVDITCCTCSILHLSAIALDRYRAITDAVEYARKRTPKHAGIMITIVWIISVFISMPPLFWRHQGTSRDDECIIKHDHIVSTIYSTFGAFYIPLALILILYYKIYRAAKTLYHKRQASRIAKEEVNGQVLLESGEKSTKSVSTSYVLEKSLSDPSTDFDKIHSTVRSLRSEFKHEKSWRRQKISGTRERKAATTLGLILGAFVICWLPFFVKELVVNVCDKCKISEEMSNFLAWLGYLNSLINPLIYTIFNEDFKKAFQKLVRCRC

T3: human GALR1 receptor (human, UniProt P47211 1-349)
T3 sequence (looked up): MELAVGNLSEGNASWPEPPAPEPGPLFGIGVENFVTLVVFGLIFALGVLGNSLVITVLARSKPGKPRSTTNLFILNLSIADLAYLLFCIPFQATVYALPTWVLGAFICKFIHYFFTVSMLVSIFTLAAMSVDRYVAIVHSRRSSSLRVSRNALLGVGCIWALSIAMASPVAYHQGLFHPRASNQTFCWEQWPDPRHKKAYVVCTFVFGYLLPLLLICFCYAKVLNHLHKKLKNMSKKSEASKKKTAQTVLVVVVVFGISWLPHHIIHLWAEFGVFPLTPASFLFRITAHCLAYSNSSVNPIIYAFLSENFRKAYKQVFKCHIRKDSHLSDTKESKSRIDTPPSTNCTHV

T4: human Y5 receptor (human, UniProt Q15761 1-445)
T4 sequence (looked up): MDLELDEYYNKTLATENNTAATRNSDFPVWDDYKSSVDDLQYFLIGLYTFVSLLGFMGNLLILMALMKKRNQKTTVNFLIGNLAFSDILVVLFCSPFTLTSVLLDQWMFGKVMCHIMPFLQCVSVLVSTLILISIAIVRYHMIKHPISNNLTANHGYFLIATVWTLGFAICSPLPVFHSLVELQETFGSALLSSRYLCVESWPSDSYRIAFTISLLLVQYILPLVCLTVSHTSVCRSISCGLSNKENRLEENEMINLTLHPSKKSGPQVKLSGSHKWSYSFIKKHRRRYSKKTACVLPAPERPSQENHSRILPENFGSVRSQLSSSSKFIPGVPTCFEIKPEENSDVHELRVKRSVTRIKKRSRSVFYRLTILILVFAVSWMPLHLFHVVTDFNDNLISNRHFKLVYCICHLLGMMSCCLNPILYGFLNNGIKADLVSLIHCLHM

B1: Human Gαq/z5 (Ala→Ser substitution at position 171) (other)
chain: MTLESIMACCLSEEAKEARRINDEIERQLRRDKRDARRELKLLLLGTGESGKSTFIKQMRIIHGSGYSDEDKRGFTKLVYQNIFTAMQAMIRAMDTLKIPYKYEHNKAHAQLVREVDVEKVSAFENPYVDAIKSLWNDPGIQECYDRRREYQLSDSTKYYLNDLDRVADPSYLPTQQDVLRVRVPTTGIIEYPFDLQSVIFRMVDVGGQRSERRKWIHCFENVTSIMFLVALSEYDQVLVESDNENRMEESKALFRTIITYPWFQNSSVILFLNKKDLLEEKIMYSHLVDYFPEYDGPQRDAQAAREFILKMFVDLNPDSDKIIYSHFTCATDTENIRFVFAAVKDTILQLNLKYIGLC
B2: C. elegans Gαq/z5 (other)
chain: MACCLSEEAREQKRINQEIEKQLQRDKRNARRELKLLLLGTGESGKSTFIKQMRIIHGQGYSEEDKRAHIRLVYQNVFMAIQSMIRAMDTLDIKFGNESEELQEKAAVVREVDFESVTSFEEPYVSYIKELWEDSGIQECYDRRREYQLTDSAKYYLSDLRRLAVPDYLPTEQDILRVRVPTTGIIEYPFDLEQIIFRMVDVGGQRSERRKWIHCFENVTSIMFLVALSEYDQVLVECDNENRMEESKALFRTIITYPWFTNSSVILFLNKKDLLEEKILYSHLADYFPEYDGPPRDPIAAREFILKMFVDLNPDADKIIYSHFTCATDTENIRFVFAAVKDTILQHNLKYIGLC
B3: C. elegans Gαq/z9 (other)
chain: B2 chain with H347N

Key:
Test in all cases: cell-based or functional assay
[1] = target: human dopamine D1 receptor (human, UniProt P21728 1-446)
human dopamine D1 receptor, sequence (P21728 whole entry): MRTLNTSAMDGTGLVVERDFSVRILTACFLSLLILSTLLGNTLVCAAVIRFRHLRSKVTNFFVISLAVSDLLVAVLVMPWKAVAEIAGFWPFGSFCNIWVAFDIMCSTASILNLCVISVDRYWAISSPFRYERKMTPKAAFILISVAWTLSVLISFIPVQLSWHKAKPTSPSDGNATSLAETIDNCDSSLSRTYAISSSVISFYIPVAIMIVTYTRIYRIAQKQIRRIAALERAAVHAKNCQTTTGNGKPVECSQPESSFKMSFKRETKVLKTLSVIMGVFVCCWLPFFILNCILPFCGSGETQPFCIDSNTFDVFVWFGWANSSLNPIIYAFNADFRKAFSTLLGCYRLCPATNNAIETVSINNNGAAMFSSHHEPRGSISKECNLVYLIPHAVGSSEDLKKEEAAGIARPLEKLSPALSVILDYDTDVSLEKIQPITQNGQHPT

mouse 5HT5A receptor = mouse 5HT5A receptor (mouse, UniProt P30966 1-357)
mouse 5HT5A receptor, sequence (P30966 whole entry): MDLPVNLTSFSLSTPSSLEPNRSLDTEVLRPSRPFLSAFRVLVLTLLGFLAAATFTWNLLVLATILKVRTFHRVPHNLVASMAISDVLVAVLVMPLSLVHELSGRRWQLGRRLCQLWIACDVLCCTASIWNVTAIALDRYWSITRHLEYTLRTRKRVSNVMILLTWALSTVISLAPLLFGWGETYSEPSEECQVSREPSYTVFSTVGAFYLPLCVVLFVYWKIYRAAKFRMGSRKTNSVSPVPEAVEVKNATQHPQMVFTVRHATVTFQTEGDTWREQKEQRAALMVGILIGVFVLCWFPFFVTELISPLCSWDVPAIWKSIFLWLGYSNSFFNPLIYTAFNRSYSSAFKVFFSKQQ

human 5HT1D receptor = human 5HT1D receptor (human, UniProt P28221 1-377)
human 5HT1D receptor, sequence (P28221 whole entry): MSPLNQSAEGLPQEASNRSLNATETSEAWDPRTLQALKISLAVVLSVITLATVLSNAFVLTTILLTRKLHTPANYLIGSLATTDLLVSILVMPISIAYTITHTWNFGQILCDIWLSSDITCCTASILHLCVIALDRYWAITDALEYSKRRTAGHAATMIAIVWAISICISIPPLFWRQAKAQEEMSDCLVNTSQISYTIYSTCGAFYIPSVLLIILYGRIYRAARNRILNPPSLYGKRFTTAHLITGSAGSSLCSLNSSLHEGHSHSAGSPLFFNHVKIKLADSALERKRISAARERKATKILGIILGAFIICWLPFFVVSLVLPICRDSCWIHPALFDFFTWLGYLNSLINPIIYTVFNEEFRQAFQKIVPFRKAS

[2] = target: human kappa opioid receptor (human, UniProt P41145 1-380)
human kappa opioid receptor, sequence (P41145 whole entry): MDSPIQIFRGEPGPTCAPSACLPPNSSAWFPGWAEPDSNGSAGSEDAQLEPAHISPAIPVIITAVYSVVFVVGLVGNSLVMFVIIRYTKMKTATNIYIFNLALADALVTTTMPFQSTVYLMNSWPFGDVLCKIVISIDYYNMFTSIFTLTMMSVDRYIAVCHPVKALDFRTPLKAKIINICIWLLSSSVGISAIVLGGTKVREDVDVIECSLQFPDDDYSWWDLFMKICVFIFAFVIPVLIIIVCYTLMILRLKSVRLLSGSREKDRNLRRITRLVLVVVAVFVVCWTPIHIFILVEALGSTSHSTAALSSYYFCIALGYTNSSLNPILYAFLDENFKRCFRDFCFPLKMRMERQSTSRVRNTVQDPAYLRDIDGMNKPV

human Y1 receptor = target: T1, human Y1 receptor
human 5HT1F receptor = target: T2, human 5HT1F receptor
human GALR1 receptor = target: T3, human GALR1 receptor
[3] = target: human β2 adrenergic receptor (human, UniProt P07550 1-413)
human Y5 receptor = target: T4, human Y5 receptor
human 5HT7 receptor = human 5HT7 receptor (human, UniProt P34969 1-479)
human 5HT7 receptor, sequence (P34969 whole entry): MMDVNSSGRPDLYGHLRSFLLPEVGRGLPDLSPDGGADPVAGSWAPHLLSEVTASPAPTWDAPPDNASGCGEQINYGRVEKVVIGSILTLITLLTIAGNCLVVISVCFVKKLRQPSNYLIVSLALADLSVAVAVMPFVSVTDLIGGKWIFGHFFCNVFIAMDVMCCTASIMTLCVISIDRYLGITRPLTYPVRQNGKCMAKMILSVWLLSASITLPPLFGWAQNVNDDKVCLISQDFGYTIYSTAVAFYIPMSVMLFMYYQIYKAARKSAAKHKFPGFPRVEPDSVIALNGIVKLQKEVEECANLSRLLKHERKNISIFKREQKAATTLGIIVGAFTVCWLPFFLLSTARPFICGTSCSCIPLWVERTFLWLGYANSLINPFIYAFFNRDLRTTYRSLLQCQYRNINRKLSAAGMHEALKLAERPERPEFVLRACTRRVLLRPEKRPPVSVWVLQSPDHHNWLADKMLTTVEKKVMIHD

mouse 5HT5B receptor = mouse 5HT5B receptor (mouse, UniProt P31387 1-370)
mouse 5HT5B receptor, sequence (P31387 whole entry): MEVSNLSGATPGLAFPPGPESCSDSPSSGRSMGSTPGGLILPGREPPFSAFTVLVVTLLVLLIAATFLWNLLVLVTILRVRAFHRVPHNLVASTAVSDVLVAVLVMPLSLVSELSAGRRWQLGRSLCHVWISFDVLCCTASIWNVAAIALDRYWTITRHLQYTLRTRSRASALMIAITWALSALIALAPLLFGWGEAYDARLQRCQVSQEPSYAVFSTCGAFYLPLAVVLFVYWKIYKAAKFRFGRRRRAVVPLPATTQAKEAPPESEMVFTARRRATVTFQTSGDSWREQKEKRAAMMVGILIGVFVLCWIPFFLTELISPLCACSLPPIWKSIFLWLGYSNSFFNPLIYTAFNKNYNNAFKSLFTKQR

[4] = target: human dopamine D5 receptor (human, UniProt P21918 1-477)
human dopamine D5 receptor, sequence (P21918 whole entry): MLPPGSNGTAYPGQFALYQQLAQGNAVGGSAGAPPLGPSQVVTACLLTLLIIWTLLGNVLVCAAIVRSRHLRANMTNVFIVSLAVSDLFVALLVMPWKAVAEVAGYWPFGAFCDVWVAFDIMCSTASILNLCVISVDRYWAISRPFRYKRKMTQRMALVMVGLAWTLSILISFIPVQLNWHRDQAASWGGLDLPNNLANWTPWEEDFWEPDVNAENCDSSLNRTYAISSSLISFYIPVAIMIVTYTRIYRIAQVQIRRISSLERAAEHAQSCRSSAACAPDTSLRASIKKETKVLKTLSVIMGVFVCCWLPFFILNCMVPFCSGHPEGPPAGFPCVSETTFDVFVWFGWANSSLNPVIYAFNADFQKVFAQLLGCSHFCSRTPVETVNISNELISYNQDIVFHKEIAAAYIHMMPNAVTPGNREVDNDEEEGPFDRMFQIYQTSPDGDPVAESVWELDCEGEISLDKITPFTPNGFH

human 5HT6 receptor = human 5HT6 receptor (human, UniProt P50406 1-440)
human 5HT6 receptor, sequence (P50406 whole entry): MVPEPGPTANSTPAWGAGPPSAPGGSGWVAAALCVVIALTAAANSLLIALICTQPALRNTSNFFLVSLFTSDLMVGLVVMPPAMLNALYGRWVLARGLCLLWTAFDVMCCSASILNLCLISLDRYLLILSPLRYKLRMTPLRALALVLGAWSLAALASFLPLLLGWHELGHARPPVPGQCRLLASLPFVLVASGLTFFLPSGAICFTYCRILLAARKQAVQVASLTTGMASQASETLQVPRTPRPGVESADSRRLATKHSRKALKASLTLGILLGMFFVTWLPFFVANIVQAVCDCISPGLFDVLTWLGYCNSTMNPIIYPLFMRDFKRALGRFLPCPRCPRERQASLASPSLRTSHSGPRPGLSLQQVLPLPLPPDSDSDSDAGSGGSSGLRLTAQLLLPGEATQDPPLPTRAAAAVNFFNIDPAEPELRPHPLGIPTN

[5] = target: human dopamine D2 receptor (human, UniProt P14416 1-443)
human dopamine D2 receptor, sequence (P14416 whole entry): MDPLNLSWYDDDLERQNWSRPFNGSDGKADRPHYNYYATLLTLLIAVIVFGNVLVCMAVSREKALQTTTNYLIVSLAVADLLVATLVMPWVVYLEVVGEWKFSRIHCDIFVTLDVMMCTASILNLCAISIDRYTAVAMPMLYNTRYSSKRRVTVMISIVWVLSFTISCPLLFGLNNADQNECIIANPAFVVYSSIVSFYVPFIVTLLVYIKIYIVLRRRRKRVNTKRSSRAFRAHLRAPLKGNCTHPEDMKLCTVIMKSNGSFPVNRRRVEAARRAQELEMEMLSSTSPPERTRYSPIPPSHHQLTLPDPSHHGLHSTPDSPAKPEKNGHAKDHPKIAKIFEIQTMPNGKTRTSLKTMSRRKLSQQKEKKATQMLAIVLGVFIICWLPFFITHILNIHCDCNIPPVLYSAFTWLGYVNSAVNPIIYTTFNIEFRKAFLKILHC

Row | Binder | max Ca2+ signal, COS-7, FLIPR; 100 µM dopamine [1] [fluorescence units] | max Ca2+ signal, COS-7, FLIPR; agonist 5HT (mouse 5HT5A receptor) [fluorescence units] | max Ca2+ signal, COS-7, FLIPR; agonist 5HT (human 5HT1D receptor) [fluorescence units] | max Ca2+ signal, COS-7, FLIPR; agonist U-69593 [2] [fluorescence units] | max Ca2+ signal, COS-7, FLIPR; agonist NPY (human Y1 receptor) [fluorescence units] | max Ca2+ signal, COS-7, FLIPR; agonist 5HT (human 5HT1F receptor) [fluorescence units] | max Ca2+ signal, COS-7, FLIPR; agonist GAL (human GALR1 receptor) [fluorescence units] | max Ca2+ signal, COS-7, FLIPR; agonist NE [3] [fluorescence units] | max Ca2+ signal, COS-7, FLIPR; agonist NPY (human Y5 receptor) [fluorescence units] | max Ca2+ signal, COS-7, FLIPR; agonist 5HT (human 5HT7 receptor) [fluorescence units] | max Ca2+ signal, COS-7, FLIPR; agonist 5HT (mouse 5HT5B receptor) [fluorescence units] | max Ca2+ signal, COS-7, FLIPR; agonist DA [4] [fluorescence units] | max Ca2+ signal, COS-7, FLIPR; agonist 5HT (human 5HT6 receptor) [fluorescence units] | max Ca2+ signal, COS-7, FLIPR; agonist DA [5] [fluorescence units]
1 | B1 | 0 | 0 | 316 | 7860 | 1880 | 0 | 4060 | 128 | 6410 | 90 | 251 | 782 | 210 | 15600
2 | B2 | 4830 | 351 | 414 | 5980 | 7720 | 243 | 7650 | 1840 | 5310 | 166 | 265 | 657 | 1290 | 7620
3 | B3 | – | 270 | 504 | 3470 | 6730 | 384 | 8490 | 1700 | 6680 | 129 | 443 | 797 | 2290 | 4300
